According to patent publication US12127562B2, “Methods and compositions that increase pesticidal activity for FR901228” (PRO FARM GROUP, INC., priority 2020, dated 2024):
≈ marks a conversion by molar mass, not a printed value. Entries after “also recorded” stand apart in the source; their conditions may differ. Like-named read-outs stand apart in the source and are kept apart here.

B1: DnaK: Chaperone protein DnaK from Burkholderia rinojensis A396 (SEQ ID No. 2), His-tagged, overexpressed in E. coli (protein)
chain: MGKIIGIDLGTTNSCVAVMEGNQVKVIENSEGARTTPSIIAYMDDNEVLVGAPAKRQSVTNPRNTLFAVKRLIGRRFEEKEVQKDIGLMPYAIIKADNGDAWVEAHGDKLAPPQVSAEVLRKMKKTAEDYLGEPVTEAVITVPAYFNDSQRQATKDAGRIAGLEVKRIINEPTAAALAFGLDKAEKGDRKIAVYDLGGGTFDVSIIEIADVDGEMQFEVLSTNGDTFLGGEDFDQRIIDYIIGEFKKEQGVDLSKDVLALQRLKEAAEKAKIELSSGQQTEINLPYITADASGPKHLNLKITRAKLEALVEELVERTIEPCRIAIKDAGVKVSDIDDVILVGGQTRMPKVLEKVKEFFGKDPRRDVNPDEAVAVGAAIQGQVLSGDRKDVLLLDVTPLSLGIETLGGVMTKMINKNTTIPTKHAQVYSTADDNQGAVTIKVFQGEREMAAGNKLLGEFNLEGIPPAPRGVPQIEVTFDIDANGILHVGAKDKATGKENKITIKANSGLSEAEIDQMIKDAEANAAEDHKLRELADSRNQGDALVHSTKKAVAEYGDKLDAGEKDKIEAALKELEDVLKNTSADKAAIDAKIEALSTASQKLGEKMYADMQAQQAGAAGAAGAAEGAAHGGAQQADDVVDADFKEVKKD
modifications: His tag; Burkholderia rinojensis A396
B2: HtpG: Chaperone protein HtpG from Burkholderia rinojensis A396 (SEQ ID No. 1), His-tagged, overexpressed in E. coli (protein)
chain: MTQQTMSFQAEVKQLLHLMIHSLYSNKEIFLRELVSNASDAADKLRFEALENGALYENDPNLRIRIGFDPAARTLTIDDNGIGMSRDEAIANLGTIARSGTKEFFSKLSGDQQKDAALIGQFGVGFYSGFIVADRITVETRRAGLPASEGVRWESGGEGDFSIDAIERAARGTTITLHLREGEDELLSAHRLKSIVRKYSDHVALPILMQQEAWDAEKGEMVAKDEDETVNQASALWTRAKSEITDEQYQQFYQHLAHDHQNPLAWTHNRVEGRSEYTQLLYVPSHAPFDLWNRDYRGGLKLYVKRVFIMDDAEQLLPQYLRFVKGVVDSADLPLNVSREILQESRDVKAIREGVTKRALSMLEELANAEDDAGKEQYRTFWSAFGQVLKEGVGEDQANRERVAKLVRFASTHGGTDAQDVSLADYVARMKPEQTRIYYVTADTWQAATHSPHLEVFRKKGVEVLLLTDRVDEWMLSYLQEFDGKPLASVARGDLDLGALDDAEKKAQEETGEAFKPLVEKMKEALGDKAKDVRVTFRLTDSPSCLVADDHDMSGYLQRMLKAAGQSGPAMQPILEVNPEHPLVKQLQADSPEFGDWCHLLFDQALLAEGGALEDPASFVKRTNTLLLSRAA
modifications: His tag; Burkholderia rinojensis A396

System: Beet army worm (Spodoptera exigua)
Experiment: Beet army worm diet overlay assay (insecticidal activity)
Assay type: in vivo
Details: for LC50: Spodoptera exigua, MW 540 concentration 50 μg/mL, protein concentration 0 mg/mL; for LC50 (μg/mL MW 540): Table 4, heated, MW 540 concentration 0 μg/mL, protein concentration 5 mg/mL; for insecticidal activity (in words): text summary, compared to MW 540 alone
From the text: The present inventors evaluated whether these two proteins can form conjugates with MW 540 and whether the conjugate has the same insecticidal activity as MW 540 alone. One skilled in the art knows that protein purification often uses polyhistidine-tags to assist with the concentration and removal of desired proteins from cellular material. The two protein sequences were cloned into an expression vector (pET26b(+)) and over-expressed in E. coli BL21 cells with a His tag added to the C-terminus of the sequence. In other words, His-tagged HtpG and DnaK from B. rinojensis A396 were overexpressed in E. coli and were purified by immobilized metal ion affinity chromatography.
After mixing MW 540 with HtpG and/or DnaK, heat was applied to the mixture to from disulfide bond conjugates and the end-product was evaluated and its insecticidal activity determined.
Table 1's numbers are expressed as protein concentrations as μg/mL. Subsequently, the insecticidal activity of the end products was evaluated using Beet army worm diet overlay assay known in the art.

| Molecule | LC50 (read-out: LC50 (μg/mL MW 540), Table 2) [µg/mL] | LC50 (read-out: LC50 (μg/mL MW 540), Table 3) [µg/mL] | LC50 (read-out: LC50 (μg/mL MW 540), Table 4, unheated) [µg/mL] | LC50 (μg/mL MW 540) | insecticidal activity (in words) | insecticidal activity (in words) (listed as HtPG) |
| --- | --- | --- | --- | --- | --- | --- |
| C/C=C1\NC(=O)[C@H]2CSSCC/C=C/[C@H](CC(=O)N[C@H](C(C)C)C(=O)N2)OC(=O)[C@H](C(C)C)NC1=O [MW 540, romidepsin, reference compound] | 0.27 (≈ 0.499 µM) | 0.35 (≈ 0.647 µM) | 0.43 (≈ 0.795 µM) |  |  |  |
| B1 |  |  |  | No Activity | does not exhibit insecticidal activity; also recorded: did not show insecticidal activity |  |
| B2 |  |  |  | No Activity | did not show insecticidal activity | does not exhibit insecticidal activity |
